The assay concerns the target rmGDF8 (R&D) (mouse (from the label rmGDF8 only)) (UniProt O08689). In words: Biacore, trap captured on amine-coupled Protein A (CM5), rmGDF8 0.312-20 nM as analyte. In general terms: In SPR one partner is held on a chip, and binding of the other changes the refractive index at the surface.
Sequence of UniProt O08689 (O08689 268-376 limits assumed): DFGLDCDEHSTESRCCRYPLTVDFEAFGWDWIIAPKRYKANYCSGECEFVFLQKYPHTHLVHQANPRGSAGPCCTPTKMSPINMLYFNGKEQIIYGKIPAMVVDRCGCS

Turning to hGDF8(1-38, 43-64)-hFc (Fc fusion), the Kd – broadly, a measure of binding affinity in units of concentration – worked out at 0.0133 nM; the koff (in general, the rate constant with which the complex falls apart) came to 6.2e-05 s⁻¹; the kon (as a rule, the second-order rate constant of association) stood at 4.66e+06 M⁻¹ s⁻¹; the t½ – broadly, the time in which the quantity being followed falls by half – was 3.1 h.

The record behind these values is US20060216279A1.
